Data on one molecule can be found in patent publication US20050203007A1 (REGENTS OF THE UNIVERSITY OF MICHIGAN, published 2005).

One assay concerns the target T1, subtilisin Carlsberg (UniProt P00780 106-379).
T1 sequence (looked up): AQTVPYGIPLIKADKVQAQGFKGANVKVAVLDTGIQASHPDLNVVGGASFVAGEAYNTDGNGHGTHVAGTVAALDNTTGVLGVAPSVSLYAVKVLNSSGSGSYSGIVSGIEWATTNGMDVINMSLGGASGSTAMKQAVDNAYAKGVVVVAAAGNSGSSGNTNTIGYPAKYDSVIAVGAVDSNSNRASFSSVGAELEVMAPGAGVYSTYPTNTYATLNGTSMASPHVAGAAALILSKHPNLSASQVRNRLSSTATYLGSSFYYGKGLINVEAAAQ
Put plainly: enzyme inhibition.

The target in assay [1] is T2, secreted, soluble Kex2 (Saccharomyces cerevisiae, UniProt P13134 114-613, limits assumed).
T2 construct: Secreted, soluble construct; also called kexin
T2 sequence (looked up): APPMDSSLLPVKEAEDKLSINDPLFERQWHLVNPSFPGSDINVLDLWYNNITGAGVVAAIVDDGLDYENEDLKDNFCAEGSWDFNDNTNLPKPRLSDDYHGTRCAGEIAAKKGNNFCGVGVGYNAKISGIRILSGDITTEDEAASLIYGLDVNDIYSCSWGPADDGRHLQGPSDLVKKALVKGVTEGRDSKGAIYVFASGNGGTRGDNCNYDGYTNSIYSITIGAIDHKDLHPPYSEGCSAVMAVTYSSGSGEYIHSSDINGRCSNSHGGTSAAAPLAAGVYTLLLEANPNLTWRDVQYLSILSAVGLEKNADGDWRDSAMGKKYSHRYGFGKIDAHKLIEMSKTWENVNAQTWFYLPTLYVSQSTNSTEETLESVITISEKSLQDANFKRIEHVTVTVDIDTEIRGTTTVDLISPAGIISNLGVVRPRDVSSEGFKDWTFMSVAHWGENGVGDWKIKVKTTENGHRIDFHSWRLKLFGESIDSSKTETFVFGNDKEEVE
Put plainly: estimated from koff. On the procedure:
(§1) In some aspects of the present invention, biological application of the eglin c variants of the present invention as inhibitors of processing in vivo depends upon the rate of binding to target enzymes, where it is critical. Therefore, the rate of action of eglin variants with Kex2 and furin was examined by incubating 5×10⁻¹⁰ M enzyme with inhibitor at molar ratios of inhibitor to enzyme ranging from 10 to 80. […] The relationship between kobs and inhibitor concentration was linear. The values of kₒₙ were determined from the slope of such curves, and dissociation rate constants (koff) were calculated (koff=kₒₙ/Kₐ). For R4R1-eglin, koff was calculated to be 2×10⁻⁴s⁻¹ for Kex2, and 3×10⁻⁴s⁻¹ for furin. […] Similarly, the t_{1/2} of the complex of M4R1-eglin with Kex2 was estimated to be 3 h. For complex of R4K1-eglin with furin, koff was calculated to be 2×10⁻⁴s⁻¹ implying that the koff and t_{1/2} for this complex are similar to those for the complex of R4R1-eglin with furin.

In assay [2] the target is T3, secreted, soluble furin (human, UniProt P09958 108-715, limits assumed).
T3 construct: Secreted, soluble construct; also called human furin
Put plainly: estimated from koff. The protocol:
as §1

The target of assay [3] is T2, secreted, soluble Kex2. Put plainly: equilibrium enzyme inhibition.
In assay [4] the target is T3, secreted, soluble furin. Put plainly: equilibrium enzyme inhibition.
For assay [5], the target named is T2, secreted, soluble Kex2. Put plainly: enzyme inhibition, purified variant. The protocol:
(§2) Affinities of eglin variants with secreted, soluble Kex2 (hereafter “Kex2”; Brenner, C. and Fuller, R. S. (1992) Proc. Natl. Acad. Sci. USA 89: 922-926) and secreted, soluble furin (hereafter, “furin”; Bravo, D. A. et al (1994) J. Biol. Chem. 269: 25830-25837; and Komiyama & Fuller (2000) Biochemistry 39: 15156-15165) were measured by incubating variants with the enzymes (˜0.5 to 2.0 nM) for 45 min to 1 h at 21° C. in one of two enzyme assay buffers. For Kex2, the buffer was 200 mM Bistris (pH 7.27) containing 1 mM CaCl₂ and 0.1% Triton X-100; and for furin, the buffer was 20 mM NaMES (pH 7.0) containing 1 mM CaCl₂ and 0.1% Triton X-100 for furin. 100 to 200 μL aliquots of reaction mixtures were transferred into triplicate wells of opaque 96 well plates (Costar), and residual enzyme activity was measured with an fmax fluorescence micro plate reader (Molecular Devices) by monitoring hydrolysis of a fluorogenic substrate Boc-Arg-Val-Arg-Arg-MCA. Data were graphically analyzed (KaleidaGraph) with an equation developed by Green and Work (1953). Site-directed mutagenesis at P2 and P6 of eglin c generated temporary inhibitors (Table 3) and exhausted possibility to improve affinity further with this approach.

In assay [6] the target is T3, secreted, soluble furin. Kind of assay: enzyme inhibition, purified variant. The protocol: as §2
For assay [7], the target named is T3, secreted, soluble furin. Put plainly: enzyme inhibition, purified variant; Kassoc.
The target of another assay is trypsin. Put plainly: enzyme inhibition; temporary inhibitor of trypsin.
Assay [8] concerns the target T2, secreted, soluble Kex2. Kind of assay: equilibrium enzyme inhibition, fluorogenic substrate.
Assay [9] has as its target T3, secreted, soluble furin. The assay is described as above.

T3 sequence (P09958 108-715 limits assumed): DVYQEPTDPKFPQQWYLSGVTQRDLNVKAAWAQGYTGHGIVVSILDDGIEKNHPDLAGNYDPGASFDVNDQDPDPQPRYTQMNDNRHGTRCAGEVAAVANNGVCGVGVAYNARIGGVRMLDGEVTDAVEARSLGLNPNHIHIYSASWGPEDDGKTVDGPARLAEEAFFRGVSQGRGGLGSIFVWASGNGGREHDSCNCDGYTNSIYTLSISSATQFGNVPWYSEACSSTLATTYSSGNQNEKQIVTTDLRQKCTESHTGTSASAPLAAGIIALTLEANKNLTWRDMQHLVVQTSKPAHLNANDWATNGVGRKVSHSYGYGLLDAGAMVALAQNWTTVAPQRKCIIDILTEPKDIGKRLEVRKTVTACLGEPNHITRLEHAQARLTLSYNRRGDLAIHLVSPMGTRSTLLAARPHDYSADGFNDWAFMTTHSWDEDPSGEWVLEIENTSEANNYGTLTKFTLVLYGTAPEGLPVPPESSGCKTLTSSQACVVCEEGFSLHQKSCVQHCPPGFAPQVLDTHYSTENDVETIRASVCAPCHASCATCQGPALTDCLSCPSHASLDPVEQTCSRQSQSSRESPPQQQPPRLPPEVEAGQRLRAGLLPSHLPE
Chain of trypsin (P00760 24-246): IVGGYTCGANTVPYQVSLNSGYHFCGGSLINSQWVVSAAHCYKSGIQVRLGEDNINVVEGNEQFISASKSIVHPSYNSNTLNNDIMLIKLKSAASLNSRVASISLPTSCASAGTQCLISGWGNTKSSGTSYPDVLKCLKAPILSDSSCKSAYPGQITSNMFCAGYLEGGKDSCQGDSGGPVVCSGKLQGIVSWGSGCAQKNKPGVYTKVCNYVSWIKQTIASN

B1: R4R1-eglin (designed binder)
chain: SMGSELKSFPEVVGKTVDQAREYFTLHYPQYDVYFLPEGSRVTRDLRYNRVRVFYNPGTNVVNHVPHVG
notes: N-terminal Met removed; also called Tyr49-R4R1-; D33Y49
Take B1: the Ka is 6.5e+08 M⁻¹ with subtilisin Carlsberg; 4e+08 M⁻¹ in the assay with secreted, soluble furin [7]; 8.4e+09 M⁻¹ with trypsin. Besides, the “half-life (t1/2) of the complex” value with secreted, soluble Kex2 [1] is approximately 1 h; with secreted, soluble furin [2] it was approximately 1 h. For the same molecule, in the assay with secreted, soluble Kex2 [3], the “fold decrease in affinity relative to M4R1-eglin” value turned out to be 2.5 fold. Also, the “fold stronger binding by Kex2 than by furin” value with secreted, soluble Kex2 [3] is approximately 3 fold. Besides, the “fold higher affinity than L1-eglin” value with secreted, soluble furin [4] came to 46000 fold. Besides, the “fold increase in affinity relative to M4R1-eglin” value with secreted, soluble furin [4] amounted to 1430 fold. Further, the Ki in the assay with secreted, soluble Kex2 [5] is 0.91 nM; in the assay with secreted, soluble furin [6], 2.5 nM; with secreted, soluble Kex2 [8], 0.91 nM; with secreted, soluble furin [9], 2.5 nM. Also, the “Ki ratio (to R4R1- template)” value with secreted, soluble Kex2 [5] worked out at 1; with secreted, soluble furin [6] it was 1.
